Assay results: patent publication US9835633

Tested on: human apolipoprotein E4
Sequence (chain, as listed by the source): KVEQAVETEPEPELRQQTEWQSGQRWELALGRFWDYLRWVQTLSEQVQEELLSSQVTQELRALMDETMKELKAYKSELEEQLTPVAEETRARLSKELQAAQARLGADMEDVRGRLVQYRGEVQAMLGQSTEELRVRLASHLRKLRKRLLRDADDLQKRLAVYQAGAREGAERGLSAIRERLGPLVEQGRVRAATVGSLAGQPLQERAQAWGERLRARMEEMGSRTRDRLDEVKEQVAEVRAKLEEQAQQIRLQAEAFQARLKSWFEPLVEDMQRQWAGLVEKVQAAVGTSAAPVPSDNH

Q: With “PCSK1 (Protein Convertase, Subtilisin/Kexin-Type-1), overexpressed by transient transfection” as the substance, how does the “apoE fragmentation in NSE-apoE4 primary neurons overexpressing the enzyme” value read?
A: Its value is “A mild increase of apoE fragmentation was also detected in NSE-apoE4 primary neurons overexpressing PCSK1 or PCSK2”.

Q: Which “apoE fragmentation in NSE-apoE4 primary neurons overexpressing the enzyme” value does the source give for “PCSK2 (Protein Convertase, Subtilisin/Kexin-Type-2), overexpressed by transient transfection” here?
A: The value was “A mild increase of apoE fragmentation was also detected in NSE-apoE4 primary neurons overexpressing PCSK1 or PCSK2”.
